Blank lines part the entries; values can stand above or below the binder they belong to.
Experiments:
[1] = target: human NKG2A-CD94 heterodimer (extracellular domains) (human) (UniProt Q13241); assay: SPR Biacore T200, 37 °C, antibody captured by anti-human Fc on C1 chip, hNKG2A-hCD94 as analyte
[2] = target: cynomolgus monkey NKG2C on CHO cells (cynomolgus monkey); assay: cell binding on CHO-cyno NKG2C cells
[3] = target: mouse NKG2A on cells (mouse); assay: blockade of Qa-1b tetramer binding to mNKG2A-expressing CHO cells
[4] = target: mouse NKG2A on cells (mouse); assay: binding to mNKG2A-expressing CHO cells

Chain of human NKG2A-CD94 heterodimer (extracellular domains) (human) (chain, as listed by the source, chain 1 of 2): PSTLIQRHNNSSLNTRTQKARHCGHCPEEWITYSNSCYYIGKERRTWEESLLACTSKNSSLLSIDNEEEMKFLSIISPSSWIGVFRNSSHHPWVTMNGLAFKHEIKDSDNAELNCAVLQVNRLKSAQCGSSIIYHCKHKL
Chain of human NKG2A-CD94 heterodimer (extracellular domains) (human) (Q13241 32-179, chain 2 of 2): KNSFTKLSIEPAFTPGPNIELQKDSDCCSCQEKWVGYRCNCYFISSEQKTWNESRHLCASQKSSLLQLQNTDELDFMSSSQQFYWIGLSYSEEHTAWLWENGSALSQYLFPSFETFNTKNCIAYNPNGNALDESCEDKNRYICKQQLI

- Half-life of Antibody/Analyte Complex [1]: 3 to 4 s
- Kd [1]: 25 nM
- koff [1]: 0.2 s⁻¹
- kon [1]: 8e+06 M⁻¹ s⁻¹
B1: Z270 (antibody, from another filing, V domains shown)
VH: QVQLQQPGAELVRPGASVKLSCKASGYTFTSYWMNWVKQRPEQGLQWIGRIDPYDSETHYSQKFKDKAILTVDKSSSTAYMRLSSLTSEDSAVYYCARGGYDFDVGTLYWFFDVWGAGTTVTVS
VL: DIQMTQSPASLSASVGETVTITCRASENIYSYLAWYQQKQGKSPQFLVYNAKTLAEGVPSRFSGSGSGTQFSLKINSLQPEDFGSYYCQHHYGTPRTFGGGTKLEIK

- EC50 [2]: 0.8 nM
B2: NKG2A.9 antibody (antibody, human IgG1, kappa, V domains shown)
VH: EVQLVESGGGLVKPGGSLRLSCAASGFTFSSHSMNWVRQAPGKGLEWVSAISSSSSYIYYADSVKGRFTISRDNAKNSLYLQMNSLRAEDTAVYYCAREEWGLPFDYWGQGTLVTVSS
VL: AIQLTQSPSSLSASVGDRVTITCRASQGISSALAWYQQKPGKAPKLLIYDASSLKSGVPSRFSGSGSGTDFTLTISSLQPEDFATYYCQQFNSYPLTFGQGTRLEIKR

- IC50 [3]: 0.4 nM
- EC50 [4]: 0.3 nM
B3: NKG2A.3 antibody (anti-mNKG2A surrogate, mIgG1-D265A) (antibody, V domains shown)
VH: QVQLKQSGAELVKPGASVKISCKTSGYTFTDGYMHWVEQNPGQGLEWIGRIDPDSGYTMYNQKFQDKATLTRDKSSSTVYMELRSLTSEDSAVYYCAINYGEYWYFDFWGQGTQVTVSS
VL: DIVMTQSPSSLAVSAGDKVTINCKSSQTLFSGRYNYLAWYQQKTGQAPKLLIYYTSTRHTGVPGRFIGSGSGTDFTLTINNLQTEDLGNYYCQQHYSTPYTFGAGTNLEIRR
